Measurements reported in patent US7851436B2, “Inhibition of migration and induction of cell death by the type II collagen amino propeptides” (Washington University, priority 2007, dated 2010).
Entries after “also recorded” stand apart in the source; their conditions may differ.

Assays:
αV integrin = molecular target: T1, αV integrin (Homo sapiens, UniProt P06756); test: Integrin αV immunoprecipitation; type: binding; conditions: Ch-1 cell lysates
T1 construct: Cell homogenates were then mixed with GST, PIIBNP, or mPIIBNP; endogenous in cells; host or cells: Ch-1 human chondrosarcoma cell lysate
Experimental: Integrin αV Immunoprecipitation. Ch-1 cells were lysed in lysis buffer (50 mM Hepes-KOH [pH 7.4]; 150 mM NaCl; 1% Triton X-100; 10% glycerol; 1 mM EGTA; 1 mM EDTA; 10 mM sodium pyrophosphate; 100 mM sodium fluoride; 0.2 mM sodium orthovanadate; supplemented with the proteinase inhibitors cocktail (Sigma) overnight at 4° C. Cell homogenates were then mixed with GST, PIIBNP, or mPIIBNP and incubated for 1 hours at room temperature. Protein A agarose (Sigma) previously bound with integrin αV antibody was incubated with cell homogenate mixture for 4 h at 4° C. with gentle shaking. After washing (5 mins.×3), the precipitated material was analyzed by SDS-PAGE and detected with chicken anti PIIBNP antibody.

siRNA-treated Ch-1 cells = test: Cell death in integrin αV siRNA-treated Ch-1 cells; type: cell-based, human; conditions: 0.8 μM, serum-free medium, 24 hrs
Experimental: Detection of Cell Death. Cells were cultured to confluence in a 24-well plate pre-coated with type I collagen, fibronectin (Sigma), and ECM Matrigel (Becton Dickinson). Proteins in serum-free medium were added to the cells. Cells were monitored by light microscopy and images were digitally photographed using a Q capture Retiga 2000R camera. Quantification of cells remaining in the well was performed by washing with PBS for three times, fixing with 4% paraformaldehyde. The cells per field (×400) were counted for three field per well (3 wells per measurement). The mean number and standard deviation (SD) were calculated.
SiRNA Interference. Ch-1 cells were grown to 60-80% confluence in 6 well plates in Opti-Mem medium (Invitrogen) without antibiotics and serum. A reported method (6) is used in the design of siRNAs, sense and antisense oligonucleotides. The final concentration of oligonucleotides was 0.05 μM. Transfection was performed using a lipofectamine kit (InVitrogen). Half of the wells were stimulated with 200 ng/ml PMA (phorbol 12-myristate 13-acetate) after 4 hours incubation with oligonucleotides. Total RNA was collected via the TriZol method after incubation for 44 hours. 1 μg of total RNA was reverse transcribed with Superscript RT II in a 40 μl volume. […] Bands were quantified with Image Quant software.

αVβ5 integrin = molecular target: T2, αVβ5 integrin (Homo sapiens, UniProt P06756+P18084); test: Cell surface labeling and GST pull-down with immunoblotting; type: binding; conditions: biotin-labeled Ch-1 membrane proteins, Western blot
T2 construct: Ch-1 membrane proteins were labeled with biotin, and PIIBNP was used to isolate the integrin molecules; endogenous in cells; host or cells: Ch-1 human chondrosarcoma cells (surface-biotinylated, lysed)
Experimental: (§1) Immunoblotting. Western blotting was performed as described (7). Blots were probed with the following primary antibodies: rabbit anti αV, α2, α3, α5, β1, β3, β5 integrin and goat anti actin (Saint Cruz), chicken anti PIIBNP antiserum, and mouse anti exon 2 antiserum.
(§2) Cell Surface labeling and GST Pull-down Assay. Ch-1 cells were incubated with EZ-link Sulfo-NHS-Biotin reagent for 30 mins. according to the product instruction (Sigma). After 3 washes with 0.1 M glycine in PBS, the cells were lysed with a lysis buffer described above. The lysate was incubated with glutathione derivatized agarose beads previously bound with GST, PIIANP, PIIBNP or mPIIBNP for 1 hr. at RT. […] The membrane was washed and incubated with antibodies and then incubated with a secondary antibody coupled to horseradish peroxidase. The antibody complex was visualized by enhanced chemiluminescence.

αVβ3 integrin = molecular target: T3, αVβ3 integrin (Homo sapiens, UniProt P05106+P06756); test: as above; type: binding; conditions: biotin-labeled Ch-1 membrane proteins, Western blot
T3 construct: Ch-1 membrane proteins were labeled with biotin, and PIIBNP was used to isolate the integrin molecules; endogenous in cells; host or cells: Ch-1 human chondrosarcoma cells (surface-biotinylated, lysed)
Experimental: as §1, §2

[1] = test system: FGF induced mouse cornea neovascularization; test: In vivo mouse cornea angiogenesis inhibition assay; conditions: Balb/c mice, osmotic pumps, one week
Experimental: FGF containing PolyHEMA pellets were implanted into the corneas of 6 week old Balb/c mice. The mice received osmotic pumps containing a number of proteins to measure the ability of each protein to inhibit angiogenesis. After one week the mice were sacrificed and angiogenesis was quantified based on the total vessel length seen from fluorescently labeled vessels.
To prepare a FGF Pellet (67 ng/quarter pellet) PBS (1 μl of 1×PBS pH 7.4), sucralfate (Sigma, #S0652)(1 μL of a 100 mg/mL suspension of sucralfate), Human FGF-2 (Peprotech, 100-1 8B)(1 μL of 3.2 mg/mL FGF-2), and poly-hema (poly(2-hydroxyethyl methacrylate), Sigma, P3932)(3 μL of 250 mg/mL poly-hema) were combined. Pellets (0.5 μL) were prepped on parafilm, air dried for 10-20 mins, and divided into quarters. The resulting pellets were sealed with parafilm and stored at −20° C. until needed.
To implant the pellet, a mouse was injected with Ketamine/Xylazine (about 0.1 mg KX/gram mouse, IP injection). […]
After one week the mice are injected with same amount of Ketamine given during the implantation procedure. […] Any remaining tissues will show up when the cornea is mounted and viewed with fluorescence. […] Angiogenesis is measured by total vessel outgrowth based on the fluorescently stained blood vessels using Metamorph software (FIG. 9).

T2 sequence (P06756 31-889 limits assumed): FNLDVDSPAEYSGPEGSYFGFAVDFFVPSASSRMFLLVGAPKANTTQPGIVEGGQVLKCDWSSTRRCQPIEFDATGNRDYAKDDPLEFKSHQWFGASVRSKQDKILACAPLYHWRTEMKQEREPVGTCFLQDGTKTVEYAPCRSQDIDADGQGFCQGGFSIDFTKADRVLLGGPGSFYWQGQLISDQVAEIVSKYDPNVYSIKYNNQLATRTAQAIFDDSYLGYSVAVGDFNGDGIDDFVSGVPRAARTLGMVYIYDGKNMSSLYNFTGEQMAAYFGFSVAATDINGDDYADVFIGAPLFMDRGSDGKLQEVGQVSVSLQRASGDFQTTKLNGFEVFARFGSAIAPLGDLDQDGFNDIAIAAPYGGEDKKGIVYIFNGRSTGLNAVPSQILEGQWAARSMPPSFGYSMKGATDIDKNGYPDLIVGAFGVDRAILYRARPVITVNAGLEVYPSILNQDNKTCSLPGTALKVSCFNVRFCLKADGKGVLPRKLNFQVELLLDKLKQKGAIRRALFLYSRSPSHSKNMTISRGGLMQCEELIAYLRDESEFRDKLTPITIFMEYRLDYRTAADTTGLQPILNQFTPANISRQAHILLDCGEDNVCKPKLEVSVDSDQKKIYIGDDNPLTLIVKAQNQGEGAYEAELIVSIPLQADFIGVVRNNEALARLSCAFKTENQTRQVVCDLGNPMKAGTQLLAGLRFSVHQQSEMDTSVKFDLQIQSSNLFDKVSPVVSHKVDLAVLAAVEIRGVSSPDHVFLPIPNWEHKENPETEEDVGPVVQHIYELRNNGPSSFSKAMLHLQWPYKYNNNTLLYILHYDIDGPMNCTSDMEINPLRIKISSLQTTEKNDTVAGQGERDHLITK
T2 sequence (P06756 891-1048 limits assumed): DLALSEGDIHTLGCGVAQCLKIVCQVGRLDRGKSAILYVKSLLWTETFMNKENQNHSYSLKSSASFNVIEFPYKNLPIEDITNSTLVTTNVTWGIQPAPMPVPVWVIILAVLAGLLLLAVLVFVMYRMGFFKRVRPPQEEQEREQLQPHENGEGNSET
T2 sequence (P18084 24-799): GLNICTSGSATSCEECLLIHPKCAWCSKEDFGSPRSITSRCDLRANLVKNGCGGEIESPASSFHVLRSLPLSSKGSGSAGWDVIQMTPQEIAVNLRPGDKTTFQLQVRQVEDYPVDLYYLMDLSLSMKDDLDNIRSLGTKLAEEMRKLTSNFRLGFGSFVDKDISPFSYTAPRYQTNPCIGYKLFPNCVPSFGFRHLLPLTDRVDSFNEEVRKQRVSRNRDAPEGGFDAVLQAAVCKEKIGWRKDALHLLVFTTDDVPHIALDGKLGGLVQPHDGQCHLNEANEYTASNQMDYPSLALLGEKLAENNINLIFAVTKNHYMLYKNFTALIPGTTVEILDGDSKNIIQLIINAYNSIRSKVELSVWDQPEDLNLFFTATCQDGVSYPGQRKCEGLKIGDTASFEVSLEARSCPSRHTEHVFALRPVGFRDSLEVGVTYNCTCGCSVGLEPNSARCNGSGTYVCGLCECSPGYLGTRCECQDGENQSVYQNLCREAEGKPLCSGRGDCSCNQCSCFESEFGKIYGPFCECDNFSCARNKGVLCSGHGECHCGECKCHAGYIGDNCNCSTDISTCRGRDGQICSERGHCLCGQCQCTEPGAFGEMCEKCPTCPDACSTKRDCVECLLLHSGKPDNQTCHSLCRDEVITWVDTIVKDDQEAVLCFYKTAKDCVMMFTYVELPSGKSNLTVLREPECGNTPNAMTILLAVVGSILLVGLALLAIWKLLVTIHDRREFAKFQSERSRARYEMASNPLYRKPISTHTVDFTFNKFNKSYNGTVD
T3 sequence (P06756 31-889 limits assumed): as the sequence (P06756 31-889 limits assumed) above
T3 sequence (P06756 891-1048 limits assumed): as the sequence (P06756 891-1048 limits assumed) above
T3 sequence (P05106 27-788): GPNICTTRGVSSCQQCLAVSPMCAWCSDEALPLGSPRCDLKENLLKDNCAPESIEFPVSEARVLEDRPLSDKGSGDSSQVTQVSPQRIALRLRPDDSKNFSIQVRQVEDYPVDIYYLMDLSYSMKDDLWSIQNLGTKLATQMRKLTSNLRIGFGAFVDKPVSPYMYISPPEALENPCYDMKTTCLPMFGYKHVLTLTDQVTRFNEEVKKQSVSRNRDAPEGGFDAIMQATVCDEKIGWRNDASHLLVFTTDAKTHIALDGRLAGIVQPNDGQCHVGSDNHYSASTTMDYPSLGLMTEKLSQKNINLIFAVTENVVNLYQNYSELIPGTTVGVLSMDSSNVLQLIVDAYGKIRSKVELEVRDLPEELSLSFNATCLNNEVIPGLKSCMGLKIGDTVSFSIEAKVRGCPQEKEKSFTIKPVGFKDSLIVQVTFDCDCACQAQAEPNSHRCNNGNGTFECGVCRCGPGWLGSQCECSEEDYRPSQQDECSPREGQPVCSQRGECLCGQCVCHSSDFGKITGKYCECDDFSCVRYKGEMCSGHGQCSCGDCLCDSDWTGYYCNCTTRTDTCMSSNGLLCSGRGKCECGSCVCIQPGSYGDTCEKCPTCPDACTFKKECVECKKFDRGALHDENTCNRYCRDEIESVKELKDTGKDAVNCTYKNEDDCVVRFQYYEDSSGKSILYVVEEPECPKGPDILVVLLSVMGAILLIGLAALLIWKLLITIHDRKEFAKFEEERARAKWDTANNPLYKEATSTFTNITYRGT
T1 sequence (P06756 31-889 limits assumed): as the sequence (P06756 31-889 limits assumed) above
T1 sequence (P06756 891-1048 limits assumed): as the sequence (P06756 891-1048 limits assumed) above

In the case of “PIIBNP: Recombinant human Type IIB procollagen NH2-propeptide (exons 3-8, lacking exon 2), expressed as GST fusion protein”, the “immunoprecipitation with αV integrin specific antibody” value (αV integrin) is reported as “immunoprecipitated”, the “induction of cell death in αV siRNA-treated Ch-1 cells” value (siRNA-treated Ch-1 cells) is reported as “not able to induce cell death; also recorded: did not induce cell death” and the “binding to integrin αVβ5” value (αVβ5 integrin) is reported as “only integrins identified; also recorded: binds”. The “binding to integrin αVβ3” value (αVβ3 integrin) was “only integrins identified; also recorded: binds”, the “inhibition of angiogenesis (cornea neovascularization)” value ([1]; FGF pellets) was “inhibits angiogenesis in vivo; also recorded: suppression of neovascularization” and the toxicity [1] was “no apparent toxicity”.
